The source of these data is patent US20220204603A1 (PHARMABCINE, published 2022).

Assay [1] addresses T1, human Ang2 (construct not stated) (human, UniProt O15123 19-496, limits assumed).
T1 sequence (looked up): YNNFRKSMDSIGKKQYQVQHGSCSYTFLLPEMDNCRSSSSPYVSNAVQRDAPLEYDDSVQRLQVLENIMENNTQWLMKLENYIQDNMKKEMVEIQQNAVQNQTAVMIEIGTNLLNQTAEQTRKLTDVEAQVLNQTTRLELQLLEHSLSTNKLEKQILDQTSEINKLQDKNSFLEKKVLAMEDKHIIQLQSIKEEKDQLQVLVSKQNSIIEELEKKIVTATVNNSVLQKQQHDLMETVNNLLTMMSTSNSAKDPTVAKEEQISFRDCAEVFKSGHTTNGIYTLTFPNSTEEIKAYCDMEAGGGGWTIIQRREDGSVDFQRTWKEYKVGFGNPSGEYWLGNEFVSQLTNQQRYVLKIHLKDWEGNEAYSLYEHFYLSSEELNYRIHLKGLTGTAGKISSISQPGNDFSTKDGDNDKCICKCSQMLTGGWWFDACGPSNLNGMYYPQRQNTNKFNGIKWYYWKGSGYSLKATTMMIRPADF
Briefly: cell-based or functional assay.

The target of assay [2] is T2, biotinylated human Ang2 protein (human, UniProt O15123 19-496, limits assumed, biotinylated (sites not given)).
T2 construct: also called hAng2
T2 sequence (looked up): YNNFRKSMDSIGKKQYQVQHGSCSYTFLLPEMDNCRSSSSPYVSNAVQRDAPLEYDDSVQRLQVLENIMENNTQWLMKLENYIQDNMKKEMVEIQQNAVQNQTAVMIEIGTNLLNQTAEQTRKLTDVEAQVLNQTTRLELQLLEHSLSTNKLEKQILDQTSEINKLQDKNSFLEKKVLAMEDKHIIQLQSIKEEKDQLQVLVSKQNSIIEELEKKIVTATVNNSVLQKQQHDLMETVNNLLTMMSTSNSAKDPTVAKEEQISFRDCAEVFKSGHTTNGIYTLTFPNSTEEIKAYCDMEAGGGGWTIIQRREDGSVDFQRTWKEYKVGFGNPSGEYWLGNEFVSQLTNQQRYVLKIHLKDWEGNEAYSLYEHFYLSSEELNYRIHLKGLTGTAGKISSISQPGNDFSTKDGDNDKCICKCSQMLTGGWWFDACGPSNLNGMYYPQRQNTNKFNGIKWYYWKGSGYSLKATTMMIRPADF
As to the kind of experiment: competition ELISA: antibody preincubated with biotinylated hAng2, binding to coated integrin α5/β1. The protocol:
1 μg/ml (100 μl per well) of a human Ti32-Fc (R&D Systems, 313-TI) or mouse Tie2-Fc (R&D Systems, 762-T2-100) solution, an integrin α3/β1 solution (R&D systems, 2840-A3-050), or an integrin α5/β1 solution (R&D systems, 3230-A5-050) was added to a 96-well immunoplate (Nunc, US) and then allowed to stand overnight at 4° C. for adsorption. The next day, the plate was washed four times with PBS containing 0.05% Tween-20 (hereinafter, referred to as PBST), and 200 μl of a 2% BSA/PBST solution was added to each well and then allowed to stand at room temperature for 1 hour to perform blocking. Anti-Ang2 candidate antibodies were serially diluted 4-fold at a maximum of 1000 nM, and biotinylated human Ang2 protein was made to a final concentration of 100 ng/mL or 625 ng/mL, followed by previous binding at room temperature for 1 hour. […] The plate was washed three times with PBST, 100 μl of HRP-conjugated streptavidin (R&D Systems, DY998) diluted to 1:200 was added to allow a reaction to occur at room temperature for 1 hour, thereby inducing binding, and the plate was washed four times with PBST, followed by color development using 100 μl of a TMB substrate reagent. The color development reaction was stopped by adding 50 μl of 2N H₂SO₄, and a Sunrise microplate reader (TECAN, CH) was used to measure specific absorbance OD₄₅₀ (FIGS. 4 and 5).
On the technique in general: An ELISA detects its analyte on a solid surface through an enzyme-linked reagent.

For assay [3], the target named is T3, His-tagged human Ang1 (R&D systems, 923-AN/CF) (human, UniProt Q15389 20-498, limits assumed).
T3 construct: Bought protein; also called hAng1-his; not shown: His tag
T3 sequence (looked up): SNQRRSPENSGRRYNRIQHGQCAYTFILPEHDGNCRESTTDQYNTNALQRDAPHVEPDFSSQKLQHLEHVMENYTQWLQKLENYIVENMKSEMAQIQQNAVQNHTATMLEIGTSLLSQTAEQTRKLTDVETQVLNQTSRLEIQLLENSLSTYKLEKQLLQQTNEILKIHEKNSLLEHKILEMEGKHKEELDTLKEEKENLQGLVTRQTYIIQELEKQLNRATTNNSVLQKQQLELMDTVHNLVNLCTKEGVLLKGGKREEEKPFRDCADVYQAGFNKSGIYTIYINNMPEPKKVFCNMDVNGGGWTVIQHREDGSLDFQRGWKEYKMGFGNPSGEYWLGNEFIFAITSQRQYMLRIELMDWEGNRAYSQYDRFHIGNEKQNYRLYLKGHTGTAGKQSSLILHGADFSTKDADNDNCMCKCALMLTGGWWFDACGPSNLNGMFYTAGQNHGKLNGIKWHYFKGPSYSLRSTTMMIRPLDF
Briefly: binding ELISA, His-tagged human Ang1 coated at 1 µg/ml, detection with HRP anti-human IgG(kappa) [panel 'human Ang1 binding ELISA']. Here is the method: (§1) 1 μg/ml (100 μl per well) of a His-tagged human (R&D systems, 623-AN/CF) or mouse (sino, 50298-M07H) Ang2 solution or a His-tagged human (R&D systems, 923-AN/CF) or mouse (sino, 50300-M07H) Ang1 solution was added to a 96-well immunoplate (Nunc, US) and allowed to stand overnight at 4° C. for adsorption. The next day, the solution was washed three times with PBS containing 0.05% Tween-20 (hereinafter, referred to as PBST), and 200 μl of a 2% BSA/PBST solution was added to each well and then allowed to stand at room temperature for 2 hours to perform blocking. After washing three times with PBST, 100 μl of each test antibody solution was added to each well according to concentration to cause binding at room temperature for 1 hour, and then washing was performed three times with PBST, 100 μl of HRP-conjugated goat anti-human IgG(kappa) (bethyl lab #A80-115P) diluted to 1:2000 was added and allowed to react at room temperature for 1 hour, thereby inducing binding, and after washing three times with PBST, color development was performed using 100 μl of a TMB substrate reagent. The color development reaction was stopped by adding 50 μl of 2N H₂SO₄, and a Sunrise microplate reader (TECAN, CH) was used to measure specific absorbance OD₄₅₀₋₆₃₀ (FIG. 3).

Assay [4] deals with T4, His-tagged mouse Ang1 (sino, 50300-M07H) (mouse, UniProt O08538 20-498).
T4 construct: Bought protein; not shown: His tag
T4 sequence (looked up): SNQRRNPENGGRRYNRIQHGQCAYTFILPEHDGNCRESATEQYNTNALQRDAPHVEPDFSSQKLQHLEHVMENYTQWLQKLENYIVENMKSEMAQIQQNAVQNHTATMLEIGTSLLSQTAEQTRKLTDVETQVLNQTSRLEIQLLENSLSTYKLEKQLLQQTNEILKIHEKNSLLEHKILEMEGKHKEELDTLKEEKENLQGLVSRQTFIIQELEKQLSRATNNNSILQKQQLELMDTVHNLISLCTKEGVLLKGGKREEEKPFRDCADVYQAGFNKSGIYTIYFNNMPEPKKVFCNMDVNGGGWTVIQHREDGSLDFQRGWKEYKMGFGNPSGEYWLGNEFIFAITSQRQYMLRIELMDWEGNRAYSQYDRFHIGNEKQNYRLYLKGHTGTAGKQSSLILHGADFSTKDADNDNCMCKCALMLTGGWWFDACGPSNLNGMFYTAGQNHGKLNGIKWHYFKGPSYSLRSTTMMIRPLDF
Briefly: binding ELISA, His-tagged mouse Ang1 coated at 1 µg/ml, detection with HRP anti-human IgG(kappa) [panel 'mouse Ang1 binding ELISA']. Here is the method:
as §1

For orientation: IC50 means the concentration that gives 50% inhibition. Read a high IC50 as weaker potency.

B1: No. 46 anti-Ang2 antibody (IgG) (antibody, V domains shown)
VH: QVQLVESGGGLVQPGRSLRLSCAASGFTFDDCAMHWVRQAPGKGLEWVSGISGNSKNVAYADSVKGRFSISRDDAKNSLYLQMNSLRAEDTAVYYCARDPAYSQFDYWGQGTLITVSS
VL: QSALTQPPSLSATPGQRVTISCSGSSSNVGGYPVNWYQQVPGAAPKLLMYTDYKRPSGVPDRFFGSKSGTSASLAISGLQSEDEADYYCATWDDNLNGYVFGTGTKVTVLG
notes: IgG form: VH cloned into Invivogen pfusess-hchg1, VL into Invivogen pfuse2ss-hclk; also called 3C6
For the molecule B1, the “IC50 of Tie2 phosphorylation (Phospho-Tie2 ELISA) in human Tie2-overexpressing cells treated with human Ang2 (5 µg/ml) preincubated with antibody” value (“IC50 of Tie2 phosphorylation” for short) in assay [1] turned out to be 10.1 nM. Besides, in assay [2], the IC50 is 1.9 nM. Besides, the binding result in assay [3] and in assay [4] was “no binding (tested: 2 mg/ml (unit as read in the legend))” throughout.

B2: No. 3 anti-Ang2 antibody (IgG) (antibody, V domains shown)
VH: QMQLVQSGGGLVQPGRSLKLSCAASGFSFDDYAMHWVRQAPGKGLEWVATIKDDGSQTYYVDSVKGRFTISRDNAKSSLFLQMNSLRAEDTAVYYCTTEGLMNGLHFDMWGQGTMVTVSS
VL: LVLTQPPSVSGAPGQGVTISCTGSSSNIGAGYDVHWYQQFPGTAPKLLISGNNNRPSGLPDRFSGSKSGTSASLAITGLQAEDEADYYCQSYDSRLGVVFGGGTKLTVLG
notes: IgG form: VH cloned into Invivogen pfusess-hchg1 (heavy chain constant region), VL into Invivogen pfuse2ss-hclk (light chain constant region); Expressed in Expi293F, purified on Protein A; also called 1D10
Take B2: the “IC50 of Tie2 phosphorylation” value in assay [1] is 8.53 nM. In addition, the IC50 in assay [2] came to 1.53 nM. The binding result in assay [3] and in assay [4] was “no binding (tested: 2 mg/ml (unit as read in the legend))” each time.

B3: No. 41 anti-Ang2 antibody (IgG) (antibody, V domains shown)
VH: QVQLVESGGGLVQPGGSLRLSCEASGFAFGRYEMNWVRQAPGKGLEWIAYIDTGGGAKVYADSVKGRFTISRDDSKNSLYLQMNSLRAEDTAVYYCTTEGLMNGLHFDMWGQGTMITVSS
VL: DIQMTQSPSTLSASVGDRVAITCRASQAISTWLAWYQQKPGKAPKLLIYTASTLESGVPSRFSGSGSGTDFTLTINSLQPDDFATYYCQQLNSYPYTFGGGTKVEIKR
notes: IgG form: VH cloned into Invivogen pfusess-hchg1, VL into Invivogen pfuse2ss-hclk; also called 2B2
Turning to B3, the “IC50 of Tie2 phosphorylation” value in assay [1] is 11 nM. In assay [2], this molecule returned an IC50 of 1.49 nM. The binding result in assay [3] and in assay [4] was “no binding (tested: 2 mg/ml (unit as read in the legend))” in each case.

B4: No. 8 anti-Ang2 antibody (IgG) (antibody, V domains shown)
VH: QVQLVESGGGLVKPGGSLRLSCAASGFTFSSYSMNWVRQAPGKGLEWVSSISASDGATYYADSVRGRFTISRDNSRSTLYLQMNSLRAEDTAVYYCAKILAGYSGPMGGMDVWGQGTTVTVSS
VL: DIQMTQSPSSLSASVGDRVTITCRASRDISNYLAWYQQKPGKAPKSLIYGASNLQSGVSSQFSGSGSGTDFTLTINSLQPEDSATYYCQQYYSYPLTFGGGTKVDIKR
notes: IgG form: VH cloned into Invivogen pfusess-hchg1, VL into Invivogen pfuse2ss-hclk; also called 3A10
As for B4, the “IC50 of Tie2 phosphorylation” value in assay [1] was determined as 20.2 nM. The IC50 in assay [2] was determined as 1.89 nM. In addition, the binding result in assay [3] and in assay [4] was “no binding (tested: 2 mg/ml (unit as read in the legend))” each time.

B5: No. 4 anti-Ang2 antibody (IgG) (antibody, V domains shown)
VH: QVQLVESGAEVKRPGESLRISCKTSGYSFTSYWIHWVRQMPGKELEWMGSIYPGNSDTRYSPSFQGHVTISADSSSSTAYLQWSSLKASDTAMYYCTTEGLMNGLHFDMWGQGTMVTVSS
VL: DIVMTQTPLSLPVTPGEPASISCRSSQSLLHSLGDNYLDWYLQKPGQSPQLLIYLGSKRAAGVPDRFSGSGSGTDFTLKISRVEAEDVGVYYCMQSLQTPPYTFGQGTKLEIKR
notes: IgG form: VH cloned into Invivogen pfusess-hchg1, VL into Invivogen pfuse2ss-hclk; also called 2D8
B5: the “IC50 of Tie2 phosphorylation” value in assay [1] was determined as 12.3 nM. Besides, the IC50 in assay [2] worked out at 1.57 nM. For the same molecule, the binding result in assay [3] and in assay [4] was “no binding (tested: 2 mg/ml (unit as read in the legend))” in each case.
